Test results as given in patent US20120213781A1.
Bridges are numbered along the chain shown (N, C = ends). Where no end group is shown, it is not given here.

Target: recombinant human angiopoietin-2 (rhAng2) (human) (UniProt O15123)
Experiment: direct ELISA on rhAng2-coated wells, detection by HRP-anti-His tag antibody, OD450

Sequence of UniProt O15123 (O15123 19-496 limits assumed): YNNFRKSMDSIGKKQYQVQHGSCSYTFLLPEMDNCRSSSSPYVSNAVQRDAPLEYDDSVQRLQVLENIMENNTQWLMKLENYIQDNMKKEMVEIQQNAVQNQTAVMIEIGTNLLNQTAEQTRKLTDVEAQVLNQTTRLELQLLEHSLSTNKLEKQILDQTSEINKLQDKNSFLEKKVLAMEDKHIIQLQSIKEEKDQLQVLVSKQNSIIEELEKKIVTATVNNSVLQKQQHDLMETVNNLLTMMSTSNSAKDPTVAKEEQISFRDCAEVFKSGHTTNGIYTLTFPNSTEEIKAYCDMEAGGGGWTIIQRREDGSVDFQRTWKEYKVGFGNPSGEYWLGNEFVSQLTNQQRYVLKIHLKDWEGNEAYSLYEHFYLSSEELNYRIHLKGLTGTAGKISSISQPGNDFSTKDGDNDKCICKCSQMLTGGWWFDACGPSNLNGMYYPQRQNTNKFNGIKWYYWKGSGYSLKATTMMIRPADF

B1: Construct 13 (designed binder, not shown: small tags and cut ends)
chain: LWDDCYSFPNPPHCYNSP
modifications: disulfide 5-14 (inferred); not fully specified (N-terminus, C-terminus); also: ELP-MRD fusion, type and number of ELP repeats not given here
B1 gave an EC50 (read off the curve) of 9 nM.

B2: Construct 12 (designed binder, not shown: small tags and cut ends)
chain: LWDDCYSFPNPPHCYNSP
modifications: disulfide 5-14 (inferred); not fully specified (N-terminus, C-terminus); also: ELP-MRD fusion, type and number of ELP repeats not given here
With B2 the EC50 (read off the curve) was 9 nM.
